# According to patent publication US20250136688A1 (Janssen / Centocor, published 2025):
# T1: ectonucleotide pyrophosphatase/phosphodiesterase family member 3 (ENPP3) (human, UniProt O14638 1-875)
# T1 sequence (looked up): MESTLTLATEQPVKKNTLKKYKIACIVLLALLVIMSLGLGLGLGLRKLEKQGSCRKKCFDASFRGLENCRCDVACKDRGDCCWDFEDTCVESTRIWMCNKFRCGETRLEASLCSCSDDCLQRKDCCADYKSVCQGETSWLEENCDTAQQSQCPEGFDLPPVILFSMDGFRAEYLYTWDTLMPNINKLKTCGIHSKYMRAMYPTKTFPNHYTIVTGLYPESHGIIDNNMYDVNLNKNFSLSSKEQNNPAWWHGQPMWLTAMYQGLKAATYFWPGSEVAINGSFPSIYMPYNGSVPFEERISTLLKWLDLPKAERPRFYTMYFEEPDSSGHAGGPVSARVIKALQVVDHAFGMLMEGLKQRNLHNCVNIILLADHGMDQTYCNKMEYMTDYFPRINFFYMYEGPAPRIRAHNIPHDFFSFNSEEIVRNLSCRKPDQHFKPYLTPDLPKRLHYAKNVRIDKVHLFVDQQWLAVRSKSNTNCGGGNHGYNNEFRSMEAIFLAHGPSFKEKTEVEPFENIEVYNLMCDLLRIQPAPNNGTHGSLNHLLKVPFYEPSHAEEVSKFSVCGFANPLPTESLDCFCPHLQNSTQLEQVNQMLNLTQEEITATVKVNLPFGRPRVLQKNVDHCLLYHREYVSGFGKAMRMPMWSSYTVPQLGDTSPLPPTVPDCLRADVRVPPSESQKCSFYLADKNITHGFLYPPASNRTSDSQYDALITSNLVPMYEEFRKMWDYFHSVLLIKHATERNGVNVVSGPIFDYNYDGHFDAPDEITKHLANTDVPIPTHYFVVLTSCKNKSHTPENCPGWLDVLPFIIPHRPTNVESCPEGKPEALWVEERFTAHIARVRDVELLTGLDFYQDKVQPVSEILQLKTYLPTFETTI
# T2: cyno ENPP3 (cynomolgus monkey, UniProt A0A2K5TKP4 1-874)
# T2 sequence: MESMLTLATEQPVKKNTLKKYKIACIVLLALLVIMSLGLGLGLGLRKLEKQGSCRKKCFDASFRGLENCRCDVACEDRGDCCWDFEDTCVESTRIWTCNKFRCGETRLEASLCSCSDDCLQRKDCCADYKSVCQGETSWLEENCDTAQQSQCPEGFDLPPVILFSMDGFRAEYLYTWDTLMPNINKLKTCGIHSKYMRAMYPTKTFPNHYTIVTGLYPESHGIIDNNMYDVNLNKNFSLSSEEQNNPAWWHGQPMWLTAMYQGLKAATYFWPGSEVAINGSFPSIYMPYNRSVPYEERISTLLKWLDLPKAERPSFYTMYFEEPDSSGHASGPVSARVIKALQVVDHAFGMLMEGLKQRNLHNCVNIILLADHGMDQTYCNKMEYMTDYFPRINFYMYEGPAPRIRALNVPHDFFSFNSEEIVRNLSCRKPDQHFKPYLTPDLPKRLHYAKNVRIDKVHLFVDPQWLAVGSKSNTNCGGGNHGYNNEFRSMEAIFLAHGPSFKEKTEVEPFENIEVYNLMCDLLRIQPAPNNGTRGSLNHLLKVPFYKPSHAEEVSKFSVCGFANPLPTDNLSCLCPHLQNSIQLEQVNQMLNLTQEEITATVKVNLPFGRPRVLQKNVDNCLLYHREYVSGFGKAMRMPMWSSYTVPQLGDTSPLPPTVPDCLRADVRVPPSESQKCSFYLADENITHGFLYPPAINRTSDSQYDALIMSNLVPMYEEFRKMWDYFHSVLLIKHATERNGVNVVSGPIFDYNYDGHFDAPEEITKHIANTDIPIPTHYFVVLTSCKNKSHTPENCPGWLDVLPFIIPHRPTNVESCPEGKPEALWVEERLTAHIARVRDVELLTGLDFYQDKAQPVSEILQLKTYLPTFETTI
# Key:
# [1] = molecular target: T1, ectonucleotide …; assay: cell-based or functional assay
# cyno ENPP3 = molecular target: T2, cyno ENPP3; assay: cell-based or functional assay
# [2] = molecular target: T1, ectonucleotide …; assay: flow cytometry on CHO ENPP3 OE cells
# Human CD3 epsilon [3] = molecular target: T3, Human CD3 epsilon (human, UniProt P07766 23-207); assay: flow cytometry on T cells, average of 6 healthy human donors
# T3 construct: Stood on human T cells (pan-T cells, isolated donor T cells) as part of the TCR/CD3 complex; the other chains of the complex are not written here; also called CD3ε; CD3R
# Human CD3 epsilon [4] = molecular target: T3, Human CD3 epsilon; assay: flow cytometry on T cells of healthy human donor 110042496
# T3 sequence (P07766 23-207 limits assumed): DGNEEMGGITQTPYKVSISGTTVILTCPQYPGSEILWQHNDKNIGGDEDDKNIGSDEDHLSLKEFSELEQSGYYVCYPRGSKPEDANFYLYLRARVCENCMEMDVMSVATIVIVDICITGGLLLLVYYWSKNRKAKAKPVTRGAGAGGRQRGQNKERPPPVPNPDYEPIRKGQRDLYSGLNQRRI
binder,measurement,setting,value
"NPP3B815 (NPP3B56×CD3B2030-N106A-spFv) (bispecific antibody, human IgG1, kappa, L234A L235A, Heavy Chain 1 = anti-CD3 spFv-Fc (knob); Heavy Chain 2 and Light Chain = anti-ENPP3 Fab arm NPP3B56 (hole); IgG1 with L234A, L235A, D265S; also called ENPP3×CD3) EIVLTQSPATLSASPGERVTLSCSASSSVSYMNWYQQKPGCAPRRWIYDSSKLASGVPARFSGSGSGRDYTLTISSLEPEDFAVYYCQQWSRNPPTFGGGTKVEIKGGGSGGSGGCPPCGGSGGQVQLVQSGAEVKKPGSSVKVSCKASGYTFTRSTMHWVKQAPGQGLEWIGYINPSSAYTNYNQKFQGRVTLTADKSTSTAYMELSSLRSEDTAVYYCASPQVHYDYAGFPYWGCGTLVTVSSEPKSSDKTHTCPPCPAPEAAGGPSVFLFPPKPKDTLMISRTPEVTCVVVSVSHEDPEVKFNWYVDGVEVHNAKTKPREEQYNSTYRVVSVLTVLHQDWLNGKEYKCKVSNKALPAPIEKTISKAKGQPREPQVYTLPPSREEMTKNQVSLWCLVKGFYPSDIAVEWESNGQPENNYKTTPPVLDSDGSFFLYSKLTVDKSRWQQGNVFSCSVMHEALHNHYTQKSLSLSPGK heavy: EVQLVESGGGRVKPGGSLRLSCAASGFTFSDYSMNWVRQAPGKGLEWVSSISSISSYVKYADSVKGRFTMSRDNAKNSLFLQMNSLRDEDMAVYYCARGHYFDYWGQGTLVTVSSASTKGPSVFPLAPSSKSTSGGTAALGCLVKDYFPEPVTVSWNSGALTSGVHTFPAVLQSSGLYSLSSVVTVPSSSLGTQTYICNVNHKPSNTKVDKKVEPKSCDKTHTCPPCPAPEAAGGPSVFLFPPKPKDTLMISRTPEVTCVVVSVSHEDPEVKFNWYVDGVEVHNAKTKPREEQYNSTYRVVSVLTVLHQDWLNGKEYKCKVSNKALPAPIEKTISKAKGQPREPQVYTLPPSREEMTKNQVSLSCAVKGFYPSDIAVEWESNGQPENNYKTTPPVLDSDGSFFLVSKLTVDKSRWQQGNVFSCSVMHEALHNRFTQKSLSLSPGK light: not shown","killing EC50 with PBMCs, A704, donor 110040278, E:T 3:1",[1],52 pM
same,"killing EC50 with PBMCs, A704, donor 110040278, E:T 5:1",[1],28 pM
same,"killing EC50 with PBMCs, A704, donor 110042496, E:T 3:1",[1],97 pM
same,"killing EC50 with PBMCs, A704, donor 110042496, E:T 5:1",[1],61 pM
same,"killing EC50 with PBMCs, A704, donor 110042593, E:T 1:1",[1],124 pM
same,"killing EC50 with PBMCs, A704, donor 110042593, E:T 3:1",[1],39 pM
same,"killing EC50 with PBMCs, A704, donor 110042593, E:T 5:1",[1],15 pM
same,"killing EC50 with PBMCs, A704, donor 110044049, E:T 1:1",[1],131 pM
same,"killing EC50 with PBMCs, A704, donor 110044049, E:T 3:1",[1],52 pM
same,"killing EC50 with PBMCs, A704, donor 110044049, E:T 5:1",[1],16 pM
same,"killing EC50 with PBMCs, A704, donor 110048457, E:T 3:1",[1],46 pM
same,"killing EC50 with PBMCs, A704, donor 110048457, E:T 5:1",[1],13 pM
same,"killing EC50 with PBMCs, A704, donor 888668965, E:T 1:1",[1],107 pM
same,"killing EC50 with PBMCs, A704, donor 888668965, E:T 3:1",[1],36 pM
same,"killing EC50 with PBMCs, A704, donor 888668965, E:T 5:1",[1],15 pM
same,"killing EC50 with PBMCs, VMRCRCW, donor 110040278, E:T 5:1",[1],33 pM
same,"killing EC50 with PBMCs, VMRCRCW, donor 110042496, E:T 5:1",[1],65 pM
same,"killing EC50 with PBMCs, VMRCRCW, donor 110042593, E:T 5:1",[1],33 pM
same,"killing EC50 with PBMCs, VMRCRCW, donor 110044049, E:T 5:1",[1],51 pM
same,"killing EC50 with PBMCs, VMRCRCW, donor 110048457, E:T 5:1",[1],63 pM
same,"killing EC50 with PBMCs, VMRCRCW, donor 888668965, E:T 5:1",[1],62 pM
same,"Cytotox. EC50, human T cells, HepG2-KO cyno ENPP3-OE cells, E:T 3:1",cyno ENPP3,79 pM
same,"T-cell activation EC50, human T cells, HepG2-KO cyno ENPP3-OE cells, E:T 3:1",cyno ENPP3,23 pM
same,EC50,[2],510 pM
same,EC50,Human CD3 epsilon [3],177000 pM
same,EC50,Human CD3 epsilon [4],147000 pM
